Assay results as given in US8147817B2, “IL-33 in the treatment and diagnosis of diseases and disorders” (The Brigham and Women's Hospital, Inc., priority 2006, dated 2012).
Entries after “also recorded” stand apart in the source; their conditions may differ. Where two headings read alike, the source gives them in different places.

Tests used:
[1] = tested on: WT and ST2−/− mice after TAC; conditions: for induction of ANP and BNP gene expression after TAC: left ventricle 1 week after operation;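 as to all read-outs here: ST2−/− mice and WT littermates, 8-10 weeks old at the time of TAC surgery where applicable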
Procedure: Targeted ST2 ablated mice and their wild-type littermates were employed for the experiment simultaneously. TAC was produced as described previously (11-13) on 8-10 week old mice. Some mice underwent daily intraperitoneal (i.p.) injection of IL-33 (2 μg suspended in 100 microliters of PBS with 0.2% bovine serum albumin) or vehicle beginning from the day after TAC operation to the day of harvest.
Formalin-fixed, paraffin-embedded sections were prepared as previously described (42). For immunohistochemistry, the first antibodies used were anti-cleaved caspase-3 (Cell Signaling Technology) and anti-mac3 (BD Biosciences, San Jose, Calif.). For TUNEL analysis, the In Situ apoptosis detection kit (Chemicon, Temecula, Calif.) was used along with the manufacturer's protocol with some optimal modifications on the treatment periods.
Targeted ST2−/− mice and their WT littermates were employed for the experiments. TAC was produced as described previously (49, 50) on 8-10 week old mice. All operative procedures were performed by a single operator with over 20 years rodent cardiac surgery experience who was blinded to genotype and the randomized treatment assignment. Following the procedure, each mouse received daily i.p. injection of recombinant rat IL-33 (2 μg) or vehicle from the day after TAC operation until the day of harvest.
Echocardiographic acquisition and analysis were performed by an echocardiographer blinded to treatment group. […] All images were taken at a heart rate greater than 400 beats per minute to minimize effects of anesthesia, using a Sonos-4500 (Philips) and a 15-MHz transducer. Three consecutive cardiac cycles were averaged. Left ventricular mass was calculated by the M-mode method (51). Left ventricular fractional shortening was calculated as (EDD−ESD)/EDD×100%, where EDD is end-diastolic dimension and ESD is end-systolic dimension.
A planimetry image analysis program was used by an investigator blinded to treatment group to quantitate the 30 high power field regions randomly selected in each slice with Hematoxylin-eosin stain (for cross-sectional area) or Sirius-red stain (for fibrotic area). Cross sectional area of cardiomyocytes was measured as described previously (52). Fibrotic area was calculated as (red area/total area)×100%. The scores from all slices were averaged to calculate their respective values.

[2] = tested on: lungs of Sham-operated mice; assay: Lung histology of Sham-operated mice after IL-33 treatment; format: in vivo, mouse; conditions: 2 μg/day rat IL-33 for 7 days
Procedure: Targeted ST2−/− mice and their WT littermates were employed for the experiments. […] All operative procedures were performed by a single operator with over 20 years rodent cardiac surgery experience who was blinded to genotype and the randomized treatment assignment. Following the procedure, each mouse received daily i.p. injection of recombinant rat IL-33 (2 μg) or vehicle from the day after TAC operation until the day of harvest.

mouse ST2 = target: T1, mouse ST2 (Mus musculus, UniProt P14719); assay: Pull-down assay of recombinant IL-33 with mouse ST2-Fc protein; format: binding
T1 construct: purchased R&D
T1 sequence (P14719 27-337 isoform P14719-2 limits assumed): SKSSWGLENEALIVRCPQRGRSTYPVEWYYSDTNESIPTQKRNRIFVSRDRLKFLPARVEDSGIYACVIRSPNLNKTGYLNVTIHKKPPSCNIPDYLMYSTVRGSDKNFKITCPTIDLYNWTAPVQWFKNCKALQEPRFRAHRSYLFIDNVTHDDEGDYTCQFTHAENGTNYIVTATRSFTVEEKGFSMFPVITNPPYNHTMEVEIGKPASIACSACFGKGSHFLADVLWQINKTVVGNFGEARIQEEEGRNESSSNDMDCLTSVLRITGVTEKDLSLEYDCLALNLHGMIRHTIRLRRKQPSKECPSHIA
Text: The GenBank™ accession number for rat IL-33 is BC081993. The rat IL-33 cDNA was subcloned into the expression vector pTrcHis-TOPO (Invitrogen), starting with amino acid 109 of the full-length protein with an N-terminal His tag. After sequencing, One-shot TOP10 bacteria (Invitrogen) were transformed and expression was induced with Isopropyl β-D-1-thiogalactopyranoside (Sigma). Four hours after induction, bacteria were harvested, and the pellet was resuspended in B-PER Bacterial Protein Extraction Reagent (Pierce) with EDTA-free protease inhibitor cocktail (Sigma). The lysate was purified with Ni-chelating affinity chromatography using a Ni-NTA Purification system (Invitrogen). Briefly, Ni NTA beads were washed twice after batch binding with 40 ml of 20 mM Imidazole, 300 mM NaCl, 50 mM potassium phosphate, pH 8.0. IL-33 was eluted with 10 ml of 250 mM Imidazole, 300 mM NaCl, 50 mM potassium phosphate, pH 8.0. IL-33 protein was further concentrated, dialyzed and purified by high-performance liquid chromatography (BioLogic DuoFlow System, Bio-Rad, Hercules, Calif.) using HiPrep sephacryl size exclusion column (GE Healthcare Bioscience, Piscataway, N.J.) with buffer containing 150 mM NaCl, 50 mM potassium phosphate, pH 7.2. Endotoxin level (<0.03 EU/μg protein) was determined by Limulus Amebocyte Lysate PYROGENT Ultra (Cambrex) as previously described (12). […]

[3] = tested on: rat neonatal cardiomyocytes; assay: In vitro cell size measurement of cardiomyocytes; format: cell-based; conditions: with or without angiotensin-II (0.1 μM), IL-33 (10 ng/ml), anti-ST2 antibody (100 μg/ml)
Procedure: Sarcomeric α-actinin staining for cardiomyocytes and BrdUrd labeling for cardiac fibroblasts were performed as described previously (5). Mouse monoclonal antibody to sarcomeric α-actinin (EA-53, Sigma) was diluted 1:100 and used. For cardiomyocyte size, cells were visualized using an inverted fluorescent microscope (IX-70; Olympus), and the surface area of the cardiomyocytes was calculated with ImagePro Express software. Cells from randomly selected fields were analyzed.
Cell culture of rat neonatal cardiomyocytes and cardiac fibroblasts was performed as previously described (42, 43). Briefly, hearts from 1-3 day-old Sprague-Dawley rat neonates (Charles River) were digested with trypsin (1 mg/ml, GIBCO) and collagenase-II (0.8 mg/ml, Worthington), and plated on non-coated culture dishes for 1.5 hrs. Attached cells were further cultured with Dulbecco's Modified Essential Medium (GIBCO) containing 10% fetal bovine serum and used as cardiac fibroblasts after 2 passages. […]
Immunofluorescence staining on paraffin-embedded mice hearts or rat neonatal cardiomyocyte cell culture was performed as described previously (42, 45). […] For measuring cardiomyocyte size, the surface area of the cells was calculated with ImagePro Express software. Cells from randomly selected fields were analyzed.

cardiomyocytes = assay: Oxidative stress assay (DCFDA, ROS generation); format: cell-based, rat; conditions: co-treatment with IL-33
Procedure: An assay to detect oxidative stress was performed as reported previously (48). Cardiomyocytes were incubated with 2,7-dichlorodihydrofluorecein diacetate (DCFDA) for 45 min, washed in phosphate-buffered saline, and fluorescence intensity was measured using a fluorometer (PerkinElmer Life Science) at 595 nm.

[4] = ST2−/− mice, 4 weeks after operation
[5] = WT mice surviving 8 weeks after TAC
[6] = WT mice, IL-33 2 μg/day i.p. for 4 weeks

B1: IL-33: recombinant mature rat IL-33, starting with amino acid 109 of the full-length protein, N-terminal His tag (GenBank BC081993) (protein)
chain: SIQGTSLLTESCALSTYNDQSVSFVLENGCYVINVEDCGKNQEKDKVLLRYYESSFPAQSGDGVDGKKLMVNMSPIKDTDIWLNANDKDYSVELQKGDVSPPDQAFFVLHKKSSDFVSFECKNLPGTYIGVKDNQLALVEENDESCNNIMFKLSKM
modifications: left off: small tags and cut ends
- percentage of TUNEL positive nuclei in myocardium ([1]; 4 weeks after operation): not changed; also recorded: did not affect TUNEL positivity
- Gross Heart/Body Weight after TAC ([1]; ST2−/− mice): not in ST2−/− mice
- NF-κB nuclear binding activity in left ventricular myocardium ([1]; ST2−/− mice, 1 week after operation): not in ST2−/− mice; also recorded: modest increase in NF-κB binding
- hypertrophy by echocardiography after TAC [1, 4]: not in ST2−/− littermates
- increased left ventricular dilation and reduced fractional shortening after TAC [1, 4]: not reversed
- induction of ANP and BNP gene expression after TAC ([1]; ST2−/− mice): not in ST2−/− mice
- Gross Heart/Body Weight after TAC ([1]; WT mice): antihypertrophic effect of IL-33 in WT mice
- survival after TAC ([1]; WT mice): significantly improved survival in WT mice after TAC; also recorded: improved pathological changes and survival in WT mice
- fractional shortening (echocardiography) [1, 5]: increased fractional shortening
- left ventricular wall thickness (echocardiography) [1, 5]: reduced wall thickness
- NF-κB nuclear binding activity in left ventricular myocardium after TAC ([1]; WT mice, 1 week after operation): inhibited NF-κB induction only in WT mice; also recorded: reversed these changes only in WT mice
- macrophage infiltration in myocardium after TAC ([1]; WT mice, 1 week, co-treatment with IL-33): decreased by co-treatment with IL-33; also recorded: reduced macrophage infiltration after TAC only in WT mice
- hypertrophy by echocardiography after TAC ([1]; WT mice, 4 weeks after operation): reduced hypertrophy only in WT mice
- cardiac fibrosis (Sirius-red) after TAC [1, 6]: reduced cardiac fibrosis; also recorded: significantly improved these changes in WT mice
- cardiomyocyte hypertrophy (cross-sectional area) after TAC [1, 6]: reduced cardiac fibrosis and cardiomyocyte hypertrophy; also recorded: significantly improved these changes in WT mice
- induction of ANP and BNP gene expression after TAC ([1]; WT mice): markedly attenuated induction of both genes in WT; also recorded: effectively reversed the induction of these hypertrophic genes in WT mice with TAC; also recorded: reversed these changes only in WT mice
- macrophage infiltration in myocardium, IL-33 alone ([1]; WT or ST2−/− mice without TAC, 1 week of treatment): did not significantly increase macrophage infiltration; also recorded: not observed; also recorded: did not induce macrophage infiltration
- echocardiographic parameters under non-stress conditions ([1]; no TAC): no significant change
- inflammatory changes in lung ([2]; ST2−/− mice): None of these changes were observed; also recorded: These changes were not observed
- epithelial lining of the airways ([2]; WT mice): remained unchanged
- infiltration of inflammatory cells in lung ([2]; WT mice): Mild infiltration of inflammatory cells within vessel walls and adjacent to the vessels; also recorded: mild focal infiltrations of inflammatory cells
- binding to mouse ST2 (pulldown with ST2-Fc chimera protein) (mouse ST2): bound to the mouse ST2 protein
- binding to mouse ST2 (pulldown with ST2-Fc chimera protein) (mouse ST2; listed as recombinant IL-33): exhibits specific binding to mouse ST2
- cardiomyocyte cell size [3]: antihypertrophic effect of IL-33 was further confirmed
- ROS generation in the presence of angiotensin-II or phenylephrine (cardiomyocytes): significantly decreased the generation of ROS; also recorded: inhibited by IL-33 in cardiomyocytes
